According to the supplement of paper PMC11246515:
± gives the standard deviation of the averaged measurements.

Experiment: total protein half-life in vivo (active degradation + dilution); higher = more stable protein
[1] = E. coli NCM3722 delta-clpP delta-lon delta-hslV, growth: N-lim chemostat, doubling time 6 h
[2] = E. coli NCM3722 delta-clpP, growth: N-lim chemostat, doubling time 6 h
[3] = E. coli NCM3722 delta-hslV, growth: N-lim chemostat, doubling time 6 h
[4] = E. coli NCM3722 delta-lon, growth: N-lim chemostat, doubling time 6 h
[5] = E. coli NCM3722 delta-smpB, growth: N-lim chemostat, doubling time 6 h
[6] = wild type E. coli NCM3722, growth: C-lim chemostat, doubling time 3 h
[7] = wild type E. coli NCM3722, growth: C-lim chemostat, doubling time 6 h
[8] = wild type E. coli NCM3722, growth: C-lim chemostat, doubling time 12 h
[9] = wild type E. coli NCM3722, growth: N-lim chemostat, doubling time 6 h
[10] = wild type E. coli NCM3722, growth: N-lim chemostat, doubling time 12 h
[11] = wild type E. coli NCM3722, growth: P-lim chemostat, doubling time 6 h
[12] = wild type E. coli NCM3722, growth: P-lim chemostat, doubling time 12 h

Sequence	total protein half-life in vivo [1] [h]	total protein half-life in vivo [2] [h]	total protein half-life in vivo [3] [h]	total protein half-life in vivo [4] [h]	total protein half-life in vivo [5] [h]	total protein half-life in vivo [6] [h]	total protein half-life in vivo [7] [h]	total protein half-life in vivo [8] [h]	total protein half-life in vivo [9] [h]	total protein half-life in vivo [10] [h]	total protein half-life in vivo [11] [h]	total protein half-life in vivo [12] [h]
MLIFEGKEIETDTEGYLKESSQWSEPLAVVIAENEGISLSPEHWEVVRFVRDFYLEFNTSPAIRMLVKAMANKFGEEKGNSRYLYRLFPKGPAKQATKIAGLPKPVKCI [P0AB18]	4.6 ± 0.063	3.82 ± 0.21	4.08 ± 0.12	6.01 ± 1.2	4.08 ± 0.076	2.84 ± 0.18	5.35 ± 0.47	12.8 ± 2.9	3.49 ± 0.44	6.82 ± 0.45	4.73 ± 0.007	10.19 ± 0.053
MQDRNFDDIAEKFSRNIYGTTKGQLRQAILWQDLDRVLAEMGPQKLRVLDAGGGEGQTAIKMAERGHQVILCDLSAQMIDRAKQAAEAKGVSDNMQFIHCAAQDVASHLETPVDLILFHAVLEWVADPRSVLQTLWSVLRPGGVLSLMFYNAHGLLMHNMVAGNFDYVQAGMPKKKKRTLSPDYPRDPAQVYLWLEEAGWQIMGKTGVRVFHDYLREKHQQRDCYEALLELETRYCRQEPYITLGRYIHVTARKPQSKDKV	4.99 ± 0.24	4.498 ± 0.018	3.95 ± 0.13	4.57 ± 0.49	4.304 ± 0.012	2.96 ± 0.23	5.46 ± 0.57	10.2 ± 0.95	4.21 ± 0.36	7.11 ± 0.55	5.32 ± 0.21	11 ± 0.42
MNEQSQAKSPEALRAMVAGTLANFQHPTLKHNLTTLKALHHVAWMDDTLHVELVMPFVWHSAFEELKEQCSAELLRITGAKAIDWKLSHNIATLKRVKNQPGINGVKNIIAVSSGKGGVGKSSTAVNLALALAAEGAKVGILDADIYGPSIPTMLGAENQRPTSPDGTHMAPIMSHGLATNSIGYLVTDDNAMVWRGPMASKALMQMLQETLWPDLDYLVLDMPPGTGDIQLTLAQNIPVTGAVVVTTPQDIALIDAKKGIVMFEKVEVPVLGIVENMSVHICSNCGHHEPIFGTGGAEKLAEKYHTQLLGQMPLHISLREDLDKGTPTVISRPESEFTAIYRQLADRVAAQLYWQGEVIPGEISFRAV [P0AF08]	5.1 ± 1	4.454 ± 0.02	3.96 ± 0.12	4.15 ± 0.34	3.876 ± 0.013	2.87 ± 0.2	5.22 ± 0.23	9.46 ± 1.4	3.71 ± 0.21	5.9098 ± 0.00063	5.19 ± 0.43	9.96 ± 0.64
MSAKHPVIAVTGSSGAGTTTTSLAFRKIFAQLNLHAAEVEGDSFHRYTRPEMDMAIRKARDAGRHISYFGPEANDFGLLEQTFIEYGQSGKGKSRKYLHTYDEAVPWNQVPGTFTPWQPLPEPTDVLFYEGLHGGVVTPQHNVAQHVDLLVGVVPIVNLEWIQKLIRDTSERGHSREAVMDSVVRSMEDYINYITPQFSRTHLNFQRVPTVDTSNPFAAKGIPSLDESFVVIHFRNLEGIDFPWLLAMLQGSFISHINTLVVPGGKMGLAMELIMLPLVQRLMEGKKIE [P0AEX5]	5.45 ± 0.28	5.4 ± 0.23	4.95 ± 0.67	4.68 ± 1.1	5.185 ± 0.032	2.96 ± 0.14	5.5 ± 0.22	11.8 ± 3.6	5.42 ± 0.28	10.9 ± 2.4	6.156 ± 0.01	12.4 ± 2.5
MKCKRLNEVIELLQPAWQKEPDLNLLQFLQKLAKESGFDGELADLTDDILIYHLKMRDSAKDAVIPGLQKDYEEDFKTALLRARGVIKE [P0ADP9]	6.97 ± 1.2	4.97 ± 0.93	3.81 ± 0.33	3.98 ± 0.12	3.12 ± 0.3		4.76 ± 0.47	7.3 ± 1.9	2.74 ± 0.051	8.19 ± 5.8	5.01 ± 1.1	11.2 ± 0.38
MRTSQYLLSTLKETPADAEVISHQLMLRAGMIRKLASGLYTWLPTGVRVLKKVENIVREEMNNAGAIEVSMPVVQPADLWQESGRWEQYGPELLRFVDRGERPFVLGPTHEEVITDLIRNELSSYKQLPLNFYQIQTKFRDEVRPRFGVMRSREFLMKDAYSFHTSQESLQETYDAMYAAYSKIFSRMGLDFRAVQADTGSIGGSASHEFQVLAQSGEDDVVFSDTSDYAANIELAEAIAPKEPRAAATQEMTLVDTPNAKTIAELVEQFNLPIEKTVKTLLVKAVEGSSFPQVALLVRGDHELNEVKAEKLPQVASPLTFATEEEIRAVVKAGPGSLGPVNMPIPVVIDRTVAAMSDFAAGANIDGKHYFGINWDRDVATPEVADIRNVVAGDPSPDGQGRLLIKRGIEVGHIFQLGTKYSEALKASVQGEDGRNQILTMGCYGIGVTRVVAAAIEQNYDERGIVWPDAIAPFQVAILPMNMHKSFRVQELAEKLYSELRAQGIEVLLDDRKERPGVMFADMELIGIPHTIVLGDRNLDNDDIEYKYRRNGEKQLIKTGDIVEYLVKQIKG	5.92 ± 0.2	5.61 ± 0.85	5.37 ± 0.21	6.14 ± 0.13	5.24 ± 0.2	3.1 ± 0.061	6.12 ± 0.33	10.9 ± 0.57	5.4 ± 0.19	10.6 ± 0.72	6.14 ± 0.17	12.2 ± 1.2
